Reference: US20030228627, “Assay for p53 function in cells” (published 2003)

Assays:
[1] = target: T1, p53 (full-length, Flag-tagged) (Homo sapiens, UniProt P04637 P04637:1-393); assay: EMSA; p53 with or without acetylation by p300; site described as p53 5' binding site, gel outcome not shown in the text; settings: tags: Flag, expressed in Sf9 cells; label: 32P end label
[2] = target: T1, p53 (full-length, Flag-tagged); assay: footprint; DNase I footprinting on p21 promoter as chromatin or naked DNA; described as p53 3' binding site, outcome not shown in the text; settings: tags: Flag, expressed in Sf9 cells

Binder	binding result [1]	binding result [2]
p21 promoter p53 5' site 25 bp oligonucleotide (dsDNA) DNA 1: CAGGAACATGTCCCAACATGTTGAA DNA 2: TTCAACATGTTGGGACATGTTCCTG	binds	
p21 promoter p53 3' site (dsDNA) DNA 1: AGACTGGGCATGTCTGGGCA DNA 2: TGCCCAGACATGCCCAGTCT		binds
